Consider 2 substances from patent US20230151089A1.

Assay [1] addresses alpha-synuclein oligomers (UniProt P37840). Briefly: ELISA (Example 3), reference antibody 26F1. In general terms: In an ELISA, binding on a coated surface is turned into a signal by an enzyme label.
The target is the same in assay [2]. Briefly: ELISA, alpha-Syn oligomer coated plate, exp 2.
The target is the same in assay [3]. Briefly: ELISA, alpha-Syn oligomer coated plate, exp 1.
Assay [4] has the same target. Briefly: ELISA, alpha-Syn oligomer coated plate, exp 3.
For assay [5] the target is unchanged. Nature of the assay: ELISA on antigen-coated plate, antibody titrated in tenfold steps, OD 450-630 nm.
In assay [6] the target is alpha-synuclein monomers (UniProt P37840). The assay is described as above.
In assay [7] the target is alpha-synuclein fibrils (UniProt P37840). The description is as above.
The target in assay [8] is alpha-synuclein oligomers (UniProt P37840). Briefly: ELISA, ratio of EC50 values, reference alpha-Syn fibrils (FIG. 3).

5G4 antibody gave a fold weaker binding affinity to alpha-Syn oligomers than 26F1 in assay [1] of over 2 fold. Further, the figures for the EC50 in assay [2], in assay [3] and in assay [4] were 600 pM, 200 pM and 600 pM, respectively.
On to MJFR14 antibody, for which the EC50 (read off the curve) in assay [5], in assay [6] and in assay [7] was 20 pM each time. Besides, the binding affinity ratio alpha-Syn oligomers:alpha-Syn fibrils in assay [8] was 1. For the same substance, the EC50 (in general, the concentration needed to bring the measured effect to its halfway point) in assay [2] was found to be 60 pM; in assay [3] it was 60 pM; in assay [4] it was 140 pM.
